Laboratory results as given in the nanobody polyreactivity screen of Harvey et al. (2022).

Test: yeast display, Sf9 membrane polyspecificity reagent, FACS + sequencing; frameworks hold sequencing errors
How it was run: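 After 36–48 hours of galactose induction, yeast (Saccharomyces cerevisiae BJ5465) displaying a synthetic nanobody library were stained at 4 °C for 1 hour with 10% biotinylated, detergent-solubilized Sf9 membrane reagent. Streptavidin microbeads enriched the stained cells before FACS sorting into low and high (top ~1%) gates on anti-HA and streptavidin fluorescence. Each clone's polyreactivity label reflects its gate of origin.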

Sequence | polyreactivity (PSR sort gate)
QVQLVESGGGLVQAGGSLRLSCAASGSTFPGNAMGWYRQAPGKERELVASISGGGDSTYYADSVKGRFTISRDNAKNTVYLQMISLKPEDTAVYYCAVDIDSNSGTRDYWGQGTQVTVSS | low polyreactivity
QVQLVESGGGLVQAGGSLRLSCAASGFIFVYNAMGWYRQAPGKEREFVAGISRSGGNTYYADSVKGRFTISRDNAKNTVYLQMNSLKPEDTAVYYCAVVNRRFGFPNVALRSNYGDYWGQGTQVTVSS | low polyreactivity
QVQLVESGGGLVQAGGSLRLSCAASGRTFIPYAMGWYRQAPGKERELVAAIRTTGGSTNYADSVKGRFTISRDNAKNTVYLQMNSLKPEDTAVYYCAATSRQRPYDYWGQGTQVTVSS | high polyreactivity
QFQLVDSVGGLDQAGGSLRLSSDASGLTLIGNAMGWYRQAPVKERELVASITIGGTTYADSVKGRFTISRDNAKNTVYLQMNSLKPEDTEVYYCAADFSSFSIDTGYDYWGQGTQVTVSS | low polyreactivity
QVQLVESGGGLVQAGGSLRLSCAASGRTFGGNAMGWSRQAPGKERELVAAISISGGSNTYYADSVKGRFTISRDNGKNTVYLQMNSLKPEDTAVYYCAARSTVYISSDYWGQGTQVTVSS | low polyreactivity
QVQLVESGGGLVQAGGSLRLSCAASGFTFHHYAMGWYRQAPGKERELVAAITRSGGTTYYADSVKGRFTISRDNAKNTVYLQMNRLKPEDTAVYYCAADTGAKRYYRYDYWGQGTQVTVSS | high polyreactivity
QVQLVESGGGLVQAGGSLRLSCAASGGTFSYYAMGCYRQAPGKERELVASISTDGGSTYYADSVKGRFTISRDNAKNTVYLQMNSLKPEDTAVYYCNARPRGYSDRYGYWGQGTQVTVSS | high polyreactivity
QVQLVESGGGLVQAGGSLRLSSAASGSTFRFNAMGWYRQAPGKERELVATISSGGRTYYADSVKGSFTISRDNAKNTVYLQMNSLKPEDTAVYYCAARTGYFLGRFDYWGQGTQVTVSS | high polyreactivity
QVQLVESGGGLVQAGGSLRLSCAASGRTFAYYVMGWDRQAPGKERELVAAISWSAGSTYYADSVKGRFTISRDNAKNTVYLQMNSLKPEDTAVYYCAADYRFRYEYWGQGTQVTVSS | low polyreactivity
QVQLVDSGGGLVQAGGSLRLSCAASGRTFPFYAKGLSRQATGKERELVAVITWRGSNTFADSVKGRFTISRDNAKNTVFLQMNSLKPEDTAVYYCAADAWRSYGYRAYDYWGQGTQVTVSS | high polyreactivity
QVQLVESGGGLVQAGGSLRLSCAASGSTFVKYAMGWYRQAPGKERELVATITYSSGSTSYADSVKGRFTISRDNAKNTVYLQMNSLKPEDTAVYYCAKKDYTGYGYWGQGTQVTVSS | low polyreactivity
QVQLVESGGGLVQAGGSLRLICAASGSIFITNAMGWYRQAPGKEREMVAAISGRGGSTYYADSVKGRFTISRDNAKNTVYLQMNSLKPEDTAVYYCNAYSYRVSGYDYWGQGTQVTVSS | high polyreactivity
QVQLVESGGGLVQAGGSLRLSCAASGFTFDYYAMGWYRQAPGKDRELVAAITSGSITYYADSVKGRFTISRDNAKNTVYLQMNSLKPEDTAVYYCARYGYRRVGSRWAEFDYWGQGTQVTVSS | high polyreactivity
QVQLVESGGGLVQAGGSLRLSCAASGSTFDAYAMGWYRQAPGKERELVAAITWSGGSTYYADSVKGRFTISRDNAKNTVYLQMNSLKPEDTAVYYCAAYYLIFYFEFDYWGQGTQVTVSS | low polyreactivity
QVQLVESGGGLVQAGGSLRLSCAASGRIFYYNAMGWYRQAPGKERELVAAITRTGGSTYYADSVKGRFTISRDNAKNTVYLQMNSLKPEDTAVYYCAAYGGRDIRFEYWGQGTQVTVSS | high polyreactivity
QVQLVESGGGLVQAGGSLRLSCAASGPTIDLYAMGCYRQAPGKERELVATIRSDGSTTYADSVKGRFTISRDNAKNTVYLQLNSLKPEDTAVYDCAAAFRSGFSSSTTPVQSDWGQGTQVTVSS | low polyreactivity
QVQLVESGGGLVQAGGSLRLSCAASGSTFGYYAMGWYRQAPGKERELVAAITGRGGSTYYADSVKGRFTISRDNAKNTVYLQMNSLKPEDTAVYYCAVGKYRLYYSGAYGYWGQGTQVTVSS | high polyreactivity
QVQLVESGGGLVQAGGSLRLSCAASGRISARYVMGWYRQAPGKERELVAAISWSGDRTYYADSVKGRFTISRDNAKNTVYLQMNSLKPEDTAVYYCATGFYSRLAYGYGYWGQGSQVTVSS | high polyreactivity
QVQLVESGGGIVQAGGSLRLSCAASGTTIEYNAMGWYRQAPGKERELVASSTNYADSVKGRFTISRDNAKNTVYFQMNILKPEDTAVYYCAREQGVNRNHDYWGQGTQVTVSS | low polyreactivity
QVQLVESGGGLVQAGGSLRLSCAASGSTFFGNAMGWYIQAPGKERELVAAIRFSGVGTYYADSVKGRFTISRDNAKNTVYLQLNSLKPEYTEVFYCAAESYYKYYWGQGTQVTVSS | low polyreactivity
QVQLVESGGGLVQAGGSLRLSCAASGFTLYYYMGWYRQAPGKERELVARIRATGGSTYYADSVKGRFTISRDNAKNTVDLQMNSLKPEDTAVYYCAAKGVPRRYRPDMYYWGQGTQVTVSS | high polyreactivity
QVQLVESGGGLVQAGGSLRLSCAASGSTIYKYAMGWYRQAPGKERELVAAISGSGGRTYYADSVKGRFTISRDNAKNTVYLQMNSLKPEDTAVYYCAARPKGGPWEHDYWGQGTQVTVSS | high polyreactivity

Sequence | polyreactivity (PSR sort gate)
QVQLVESGGGLVQAGGSLRLSCAASGLTFGYYSMGWYREAPGKERELVAAITYSGGSTYYADSVKGRFTISRDNAKNTVYLQMNSLKPEDTAVYYCAAEGPVYTTYEYWGQGTQVTVSS | low polyreactivity
QVQLVESGGGLVQAGGSLRLSCAASGRIFNWYAMGWYRQAPGKERELVARISSGDITSYADSVKGRFTISRDNAKNTVYLQMNSLKPEDTAVYYCAARQWFLYDYWGHGTQVTVSS | low polyreactivity
QVQLVESGGGLVQARGSLRLSCAASGSIFYYNTMGSDRQAPGKEREFVAAITYSGGSTYYSDSVKGRFTISRDKAKKTVYLLMNSLKPEDTAVYYCAAYIFYFSGGLNNRGTRGYWGQGTQVTVSS | low polyreactivity
QVQLVESGGGLVQAGGSLRLSCAASGGTFSNYAMGWYIPAPGKERELVAAITSGGGSTYYADSVKGRFTISRDNAKNTVYLQMNSLKPEDTAVYYCAARRSSYGYWGQGTQVTVSS | high polyreactivity
QVQLVESGGGLVQAGGSLRLSCAASGSTFKWYGRGWSRQAPGKDRELVATINYSSSTTYYADSVKGRFTISRDNAKNTVYLQMNSLKPEDTAVYYCAKGVYWGTKSTYDYWGQGTQVTVSS | high polyreactivity
QVQLVESGGGLVQAGGSLRLSCAASGRTFTSNAMGWYRPAPGKERELVAAITQSGGSTYYADSVKGRFTISRDNAKNTVYLQMNSLKPEDTAVYYCNAETTGRTEYNYWGQGTQVTVSS | low polyreactivity
QVQLVESGGGLVQAGGSLRLSCAASGRTFGIYAMGWYRQAPGKERELVAAISCGGGSTYYADSVKGRFTISRDNAKNTVYLQMNSLKPEYTAVYYCAAQAQWDGQMDYWGQGTQVTVSS | low polyreactivity
QVQLVESGGGLVQAGGSLRLSCAASGSTFGFNAMGWYRQAPGKERELVAAISRSGTRTYYADSVKGRFTISRDNAKNTVYLQMNSLKPEDTAVYYCAADSTLSRYDYWGQGTQVTVSS | high polyreactivity
QVQLVESGGGLVQAGGSLRLSCAASGRTFATYAMAWYRQAPGKERELVAAISRSGSTTYYADSVKGRFTISRDNAKNTVYLQMNSLKPEDTAVYYCNAKFRKADYDYWGQGTQVTVSS | high polyreactivity
QVQLVESGGGLVQAGGSLRLSCAASGRTFYPYVMGWYRQAPGKERELVARIRWSGSSTYYADSVKGRFTISRDNAKNTVYLQMNSLKPEDTAVYYCNARPSWYVFGSSVHSGMGYWGQGTQVTVSS | high polyreactivity
QVQLVDSGGGLVQAGGSLRLSCAASGSIFSAYAMGWYRQAPGKERELVAAITFGGSTYYADSVKGRFTISRDNAKNTVYLQMNSLKPEDTAVYYCNAYYPFVGLYLGHDYWGQGTQVTVSS | low polyreactivity
QVQLVESGGGLVQAGGSLRLSCASSGKIFLSYAMGWYRQAPGKERELVAGISASGGRTYYADSVKGRFTISRDNAKNTVYLQMNSLKPEDTAVYYCNADTTPQGNVRDGYWGQGTQVTVSS | high polyreactivity
QVQLVESGGGLVQAGGSLRLSCAASGNTFRNYAMGWYRQAPGKERELVAAISWTGARTYYADSVKGRFTISRDNAKNTVYLQMNSLKPEDTAVYYCARPLQWWSPSGTVDYGYWGQGTQVTVSS | high polyreactivity
QVQLVESGGGLVQAGGSLRLSCAASGFIFSWYAMGWYRQAPGKERELVARISSSGGNTYYADSVKGRFTISRDNAKNTVYLQMNSLKPEDTAVYYCAAGYRYRYDYWGQGTQVTVSS | high polyreactivity
QVQLVESGGGLVQAGGSLRLSCAASGSTLYVYTMGWYRQAPGKERELVATINTSGSRTYYADSVKGRFTISRDNAKNTVYLQMNSLKPEDTAVYYCAAEYVGKGTPDDYDYWGQGTQVTVSS | high polyreactivity
QVQLVESGGGLVQAGGSLRLSCAASGSTLQVNAMGWYRQAPGNERELVATISFSGGSTYYADSVKGRFTISRDNAKYTVYLQMNSLKPEDTAVYYCNADSFVSWYNQFWYQATYDYWGQGTEVTVSS | low polyreactivity
QDQLVESGGGLVQAGGSLRLSCAASGRIFGTYAMGWYRQAPGKERELVATISYSSGRTYYADSVKGRFTISRDNAKNTVYLQMNSLKPEDTAVYYCAAVGTGSSLRYDYWGQGTQVTVSS | high polyreactivity
QFQLVESGGGLVQAGASLRLSCAASGSIFDLNALGWYRQAPGKDRELVAAITRDSGITYYADSVKGRFKISRDNAKNTVYLQMNSLKPEDTAVYYCAADADSSSGDSWGQGTQVTVSS | low polyreactivity
QVQLVESGGGLVQAGGSLRLSCAASGITFYYYDMGWYRLAPGKERELVAAISWSGGRTYYADSVKGRFTISRDNEKNTVYLQMNSLKPEDTAVYYCASGYYVYHFVSLYGGDYWGQGTQVTVSS | high polyreactivity
QVQLVESGGGLVQAGGSLRLSCAASGSISKINAMGWYRQAPGKESELGAAINTGDSTYYADSVKGRFTISRDNAKNTVYLQMNSLKPEDTAVYYCAAEGSPTGYDDWGQGTQGTVSS | low polyreactivity
QVQLVESGGGLVQAGGSLRISCDASGSTFVANAMRSYREAPGKERELLAAISRSGGRTYYADSVKGRFTISRDNAKYTVYFQMNSLKPEDTAVYYCAADGYRSPVYANWGMGYWGQGSQVTVSS | high polyreactivity
